± gives the standard error. This sample holds only a part of the variants without activity.
B1: glmS ribozyme (parent)
chain: AUAAAAGCGCCAGAACUACAGAAAUGUAGUUGACGAGGAGGAGGUUUAUCGAAUUUUCGGCGGAUGCCUCCAAA

What was measured:
Conditions in all cases: with glucosamine-6-phosphate
glucosamine-6-phosphate [1] = variants of: B1; experiment: self-cleavage kobs at 160 uM GlcN6P; higher = faster cleavage; RNA array
Summary of the method: (§1)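 Glucosamine-6-phosphate, from 40 μM to 10 mM in HEPES/KCl/Mg(OAc)2 buffer, was flowed over sequenced MiSeq chips carrying barcoded ribozyme variants transcribed in situ by E. coli RNA polymerase. A hybridised Cy3 probe tracked the variants at 37 °C as tiles were imaged over ~14 h. kobs, kcat and KM were obtained by fitting normalised per-tile medians to exponential decays and then applying weighted Michaelis–Menten fits across concentrations.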

glucosamine-6-phosphate [2] = variants of: B1; experiment: self-cleavage kobs at 640 uM GlcN6P; higher = faster cleavage; RNA array
Summary of the method: as §1

glucosamine-6-phosphate [3] = variants of: B1; experiment: self-cleavage kobs at 2500 uM GlcN6P; higher = faster cleavage; RNA array
Summary of the method: as §1

glucosamine-6-phosphate [4] = variants of: B1; experiment: self-cleavage kobs at 10000 uM GlcN6P; higher = faster cleavage; RNA array
Summary of the method: as §1

glucosamine-6-phosphate [5] = variants of: B1; experiment: self-cleavage kobs at 40 uM GlcN6P; higher = faster cleavage; RNA array
Summary of the method: as §1

Variant	self-cleavage kobs at 160 uM GlcN6P (glucosamine-6-phosphate [1]) [s⁻¹]	self-cleavage kobs at 640 uM GlcN6P (glucosamine-6-phosphate [2]) [s⁻¹]	self-cleavage kobs at 2500 uM GlcN6P (glucosamine-6-phosphate [3]) [s⁻¹]	self-cleavage kobs at 10000 uM GlcN6P (glucosamine-6-phosphate [4]) [s⁻¹]	self-cleavage kobs at 40 uM GlcN6P (glucosamine-6-phosphate [5]) [s⁻¹]
AUAAACGCGCCAGAACUACAGAAAUGUAGUUGACCAGGAGGAGUUUUAUCGAAUUUUCGGCGGAUGCCUCCAAA [A6C G35C G44U]	< 1e-05	< 1e-05	< 1e-05		
AUAAACGCGACAGAACUACAGAAAUGUAGUUGACGAGGAGGAGGUUUAUCGAAUUUUCGGCGGAUGCCUCCAAA [A6C C10A]	< 1e-05	< 1e-05	< 1e-05	< 1e-05	
AUAAAAGCGCCAGAACUACAGAAAUGUAGUUGACGAGGAGGAGGUUUAUCGAAUUUUCGGCGGAAGCCCCCAAA [U65A U69C]		0.00019 ± 8.3e-05	0.00117 ± 0.00044	0.000843 ± 0.00023	5.26e-05 ± 1.5e-05
ACAAAAGCGCCAGAACUACAGAAAUGUAGUUGACGAGGAGGAGGUUUAUCGAAUUCUCGGCGGAUGCCUCCAAA [U2C U56C]	0.000197 ± 5.4e-05	0.000865 ± 0.00022	0.00287 ± 0.00077		
AUAAACGCGCCAGAACUACAGAAAUGUAGUUGACGACGAGGAGGUUUAUCGAAUUUUCGGCGGAAGCCUCCAAA [A6C G37C U65A]	< 1e-05	< 1e-05	< 1e-05		
AUAAACGCACCAGAACUACAGAAAUGUAGUUGACGAGGAGGAGGAUUAUCGAAUUUUCGGCGGAUGCCUCCAAA [A6C G9A U45A]	< 1e-05	< 1e-05			
AUAAACCCGCCAGAUCUACAGAAAUGUAGUUGACGAGGAGGAGGUUUAUCGAAUUUUCGGCGGAUGCCUCCAAA [A6C G7C A15U]	< 1e-05	< 1e-05	< 1e-05		
AUAAAAGCGCCAGAACUACAGAAAUGUAGUUGACGAGGAGGAGGUUUAUCGAAUUUUCGGCGGAUGCAUACAAA [C68A C70A]					< 1e-05
AUAAACGCGACAGAACUACAGAAAUGUAGUUGACAAGGAGGAGGUUUAUCGAAUUUUGGGCGGAUGCCUGCAAA [A6C C10A G35A C58G C70G]	4.89e-05 ± 2.3e-05	0.000553 ± 0.00014	0.000134 ± 4.9e-05		
AUAAACACGCCAGAACUACAGAAAUGUAGUUGACGAGGAGGAGGUUUAUCGAAUUUUCGGCGGAUGCCUCCAAA [A6C G7A]	< 1e-05	< 1e-05			
AUAAAAGCGCCAGAACUACAGAAAUGUAGUUGACGAGGAGGAGGUUUAUCGAAUUUUCGGCGGAUGCGUCGAAA [C68G C71G]	7.77e-05 ± 1.5e-05	8.75e-05 ± 2.3e-05	9.89e-05 ± 1.7e-05		2.7e-05 ± 1.3e-05
AUAAAAGCGCCAGAACUACAGAAAUGUAGUUGACGAGGAGGAGGUUUAUCGAAUUUUCGGCGGGUGCUUCCAAA [A64G C68U]	< 1e-05		2.62e-05 ± 9e-06	3.13e-05 ± 9.2e-06	< 1e-05
AUAAACGCGCCAGAACUACAGAAAUGUAGUUGACGAGGCGGAGGUUUAUCGAAUUUUCGGCGGAUGCCUUCAAA [A6C A39C C70U]	< 1e-05		< 1e-05		
AUAAAAGCGCCAGAACUACAGAAAUGUAGUUGACGAGGAGGAGGUUUAUCGAAUUUUCGGCGGAUGCCUCCAUA [A73U]			0.00477 ± 0.0019	0.0245 ± 0.0093	0.00108 ± 0.00026
AUAAAAGCGCCAGAACUACAGAAAUGUAGUUGACGAGGAGGAGGUUUAUCGAAUUUUCGGCGGAUCCAUCCAAA [G66C C68A]		0.000128 ± 5.4e-05	5.93e-05 ± 2.7e-05		< 1e-05
AUAAAAGCGCCAGAACUACAGAAAUGUAGUUGACGAGGAGGAGGUUUAUCGAAUUUUCGGCGGAUACCACCAAA [G66A U69A]	0.000185 ± 3.8e-05	0.0005 ± 9.3e-05	0.000595 ± 0.00011	0.00178 ± 0.00037	8.7e-05 ± 1.7e-05
AUAAACGCGCCAGAACUACAGAAAUGUAGUUGACGAGGAAGAGGUUUAUCGGAUUUUCGGCGGAUGUCUCCAAA [A6C G40A A52G C67U]	< 1e-05	< 1e-05	< 1e-05		
AUAAACGCGCCAGAACUACAGAAAUGUAGUUGACGAGGAGGAGGUUUAUCGAUUUUUCGGCGAAUGCCUCCAAA [A6C A53U G63A]	< 1e-05	< 1e-05	< 1e-05		
AUAAACGCGGCAGAACUACAGAAAUGUAGUUGACGCGGAGGAGGUUUACCGAUUUUUCGGCGGUUGCCUCCAAA [A6C C10G A36C U49C A53U A64U]	< 1e-05				
AUAAACGCGCCAGAACUACAGAAAUGUAGGUGACGAGGAGGAGGUUUAUCGAAUUUUCGGCGGAUGCCUCCAAA [A6C U30G]	< 1e-05				
AUAAAAGCGCCAGAACUACAGAAAUGUAGUUGACGAGGAGGAGGUUUAUCGAAUUUUCGGCGGAUGCCCCAAAA [U69C C71A]	0.000113 ± 1.9e-05	0.000587 ± 8.4e-05	0.000478 ± 9.3e-05		5.28e-05 ± 2.1e-05
AUAAACGCGCCAGCACUACAGAAAUGUAGUUGACGAGGAGGAGUCUUAUCGAAUUUUCGGCGGAUGCCUCCAAA [A6C A14C G44U U45C]	< 1e-05		< 1e-05		
AUAAAAGCGCCAGAACUACAGAAAUGUAGUUGACGAGGAGGAGGUUUAUCGAAUUUUCGGCGGAUACCUCUAAA [G66A C71U]		0.00361 ± 0.0008		0.0215 ± 0.007	0.000673 ± 0.00012
AUAAAAGCGCCAGAACUACAGAAAUGUAGUUGACGAGGAGGAGGUUUAUCGAAUUUUCGGCGGACGCUUCUAAA [U65C C68U C71U]					< 1e-05
AUAAAAGCGCCAGAACUACAGAAAUGUAGUUGACGAGGAGGAGGUUUAUCGAAUUUUCGGCGGUUGCCUCAAAA [A64U C71A]				3.22e-05 ± 1.4e-05	< 1e-05
AUAAACGCGCCAGAACUACAGAAAUGUAGUUGACGAGGAGGAGGUUUAUCGAAUUUUCGGCGGAUUCCUCCAAA [A6C G66U]	< 1e-05	< 1e-05	< 1e-05		
AUAAACGCGCCAGAACUACAGAAAUGUAGUUGACGAGGAGGAGGUUUAUCGAAUUUUCGGCGGAUCCCUCCAAA [A6C G66C]	< 1e-05	< 1e-05			
